Target: Cadherin-11 extracellular domain 1 (EC1), wild type
Test: NMR

Cadherin-11 extracellular domain 1 (EC1), wild type, sequence (P55288 1-98): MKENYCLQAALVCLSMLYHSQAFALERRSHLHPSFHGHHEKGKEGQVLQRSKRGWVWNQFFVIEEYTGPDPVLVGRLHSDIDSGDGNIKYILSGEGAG

stoichiometry N: 2
Substance: Cadherin-11 extracellular domain 1 (EC1), wild type (domain or fragment)
